Laboratory results as given in the supplement of paper PMC10567573.

B1: KRT18 (parent)
chain: PQVRDWSHYFKIIEDLRAQIFANT

Variants of: B1
Assay: protein stability index of a GFP-peptide fusion (GPS, HEK-293T) (PSI 1-6); higher = more stable
Conditions: c terminus: a fixed tail appended
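Note: lentivirally expressed fusions sorted by FACS into six bins by GFP to DsRed ratio, PSI derived from sequencing read proportions per bin multiplied by bin number.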

| Variant | protein stability index |
| --- | --- |
| PQVRDWSHYFKIIEDLRACIFANT | 1.86 |
| PQVRDWSHYFKIIEDLRAVIFANT | 1.59 |
| PQVRDWSHYFKIIEDLRARIFANT | 2.45 |
| PQVRDWSHYFKIIEDLRADIFANT | 2.49 |
| PQVRDWSHYFKIIEDLRAFIFANT | 1.7 |
| PQVRDWSHYFKIIEDLRAWIFANT | 2.39 |
| PQVRDWSHYFKIIEDLRAMIFANT | 1.89 |
| PQVRDWSHYFKIIEDLRAKIFANT | 2.12 |
| PQVRDWSHYFKIIEDLRAGIFANT | 2.34 |
| PQVRDWSHYFKIIEDLRAYIFANT | 1.65 |
| PQVRDWSHYFKIIEDLRAPIFANT | 1.97 |
| PQVRDWSHYFKIIEDLRAEIFANT | 2.62 |
| PQVRDWSHYFKIIEDLRATIFANT | 2.8 |
| PQVRDWSHYFKIIEDLRAHIFANT | 2.09 |
| PQVRDWSHYFKIIEDLRAAIFANT | 2.05 |
| PQVRDWSHYFKIIEDLRAIIFANT | 1.42 |
| PQVRDWSHYFKIIEDLRANIFANT | 2.56 |
| PQVRDWSHYFKIIEDLRALIFANT | 1.79 |
| PQVRDWSHYFKIIEDLRASIFANT | 2.67 |
| PQVRDWSHYFKIIQDLRAQIFANT | 2.64 |
| PQVRDWSHYFKIILDLRAQIFANT | 1.39 |
| PQVRDWSHYFKIITDLRAQIFANT | 2 |
| PQVRDWSHYFKIIKDLRAQIFANT | 2.77 |
| PQVRDWSHYFKIIYDLRAQIFANT | 1.9 |

| Variant | protein stability index |
| --- | --- |
| PQVRDWSHYFKIIIDLRAQIFANT | 2.46 |
| PQVRDWSHYFKIIRDLRAQIFANT | 2.27 |
| PQVRDWSHYFKIIVDLRAQIFANT | 2.11 |
| PQVRDWSHYFKIIMDLRAQIFANT | 2.32 |
| PQVRDWSHYFKIISDLRAQIFANT | 2.26 |
| PQVRDWSHYFKIIHDLRAQIFANT | 2.69 |
| PQVRDWSHYFKIIPDLRAQIFANT | 1.67 |
| PQVRDWSHYFKIIWDLRAQIFANT | 2.79 |
| PQVRDWSHYFKIINDLRAQIFANT | 2.03 |
| PQVRDWSHYFKIIEDLRAQIFANA | 1.9 |
| PQVRDWSHYFKIIEDLRAQIFANC | 2.02 |
| PQVRDWSHYFKIIEDLRAQIFANF | 2.34 |
| PQVRDWSHYFKIIEDLRAQIFAND | 2.75 |
| PQVRDWSHYFKIIEDLRAQIFANE | 3.47 |
| PQVRDWSHYFKIIEDLKAQIFANT | 3.07 |
| PQVRDWSHYFKIIEDLHAQIFANT | 2.58 |
| PQVRDWSHYFKIIEDLFAQIFANT | 1.54 |
| PQVRDWSHYFKIIEDLWAQIFANT | 1.97 |
| PQVRDWSHYFKIIEDLPAQIFANT | 2.15 |
| PQVRDWSHYFKIIEDLLAQIFANT | 1.96 |
| PQVRDWSHYFKIIEDLIAQIFANT | 2.61 |
| PQVRDWSHYFKIIEDLQAQIFANT | 2.19 |
| PQVRDWSHYFKIIEDLNAQIFANT | 2.64 |
| PQVRDWSHYFKIIEDLCAQIFANT | 1.62 |

| Variant | protein stability index |
| --- | --- |
| PQVRDWSHYFKIIEDLMAQIFANT | 2.12 |
| PQVRDWSHYFKIIEDLDAQIFANT | 2.4 |
| PQVRDWSHYFKIIEDLEAQIFANT | 2.61 |
| PQVRDWSHYFKIIEDLTAQIFANT | 2.27 |
| PQVRDWSHYFKIIEDLYAQIFANT | 1.51 |
| PQVRDWSHYFKIIEDLAAQIFANT | 2.14 |
| PQVRDWSHYFKIIEDLSAQIFANT | 2.02 |
| PQVRDWSHYFKIIEDLGAQIFANT | 2.3 |
| PQVRDWSHYFKIIEDLVAQIFANT | 1.89 |
| PQVRDWSHYFKIIEDMRAQIFANT | 2.08 |
| PQVRDWSHYFKIIEDDRAQIFANT | 2.22 |
| PQVRDWSHYFKIIEDYRAQIFANT | 2.26 |
| PQVRDWSHYFKIIEDNRAQIFANT | 2.62 |
| PQVRDWSHYFKIIEDPRAQIFANT | 2.38 |
| PQVRDWSHYFKIIEDERAQIFANT | 2.63 |
| PQVRDWSHYFKIIEDWRAQIFANT | 2.05 |
| PQVRDWSHYFKIIEDVRAQIFANT | 1.96 |
| PQVRDWSHYFKIIEDFRAQIFANT | 1.53 |
| PQVRDWSHYFKIIEDHRAQIFANT | 2.13 |
| PQVRDWSHYFKIIEDKRAQIFANT | 1.85 |
| PQVRDWSHYFKIIEDTRAQIFANT | 2.09 |
| PQVRDWSHYFKIIEDSRAQIFANT | 2.03 |
| PQVRDWSHYFKIIEDIRAQIFANT | 2.03 |
| PQVRDWSHYFKIIEDARAQIFANT | 2.17 |

| Variant | protein stability index |
| --- | --- |
| PQVRDWSHYFKIIEDQRAQIFANT | 2.47 |
| PQVRDWSHYFKIIEDCRAQIFANT | 1.7 |
| PQVRDWSHYFKIIEDRRAQIFANT | 2.33 |
| PQVRDWSHYFKIIEDGRAQIFANT | 2.32 |
| PQVRDWSHYFKIIEDLRAQIFAKT | 2.06 |
| PQVRDWSHYFKIIEDLRAQIFAET | 2.8 |
| PQVRDWSHYFKIIEDLRAQIFAFT | 1.22 |
| PQVRDWSHYFKIIEDLRAQIFACT | 2.36 |
| PQVRDWSHYFKIIEDLRAQIFAWT | 1.95 |
| PQVRDWSHYFKIIEDLRAQIFAQT | 1.86 |
| PQVRDWSHYFKIIEDLRAQIFAYT | 1.56 |
| PQVRDWSHYFKIIEDLRAQIFAPT | 1.91 |
| PQVRDWSHYFKIIEDLRAQIFADT | 2.43 |
| PQVRDWSHYFKIIEDLRAQIFAMT | 2.1 |
| PQVRDWSHYFKIIEDLRAQIFATT | 1.56 |
| PQVRDWSHYFKIIEDLRAQIFAIT | 1.93 |
| PQVRDWSHYFKIIEDLRAQIFALT | 2.53 |
| PQVRDWSHYFKIIEDLRAQIFAVT | 2.08 |
| PQVRDWSHYFKIIEDLRAQIFART | 2.57 |
| PQVRDWSHYFKIIEDLRAQIFAAT | 1.86 |
| PQVRDWSHYFKIIEDLRAQIFAHT | 2.35 |
| PQVRDWSHYFKIIEDLRAQIFAST | 2.33 |
